Molecular target: delta-plasminogen
Sequence (chain, as listed by the source mutant): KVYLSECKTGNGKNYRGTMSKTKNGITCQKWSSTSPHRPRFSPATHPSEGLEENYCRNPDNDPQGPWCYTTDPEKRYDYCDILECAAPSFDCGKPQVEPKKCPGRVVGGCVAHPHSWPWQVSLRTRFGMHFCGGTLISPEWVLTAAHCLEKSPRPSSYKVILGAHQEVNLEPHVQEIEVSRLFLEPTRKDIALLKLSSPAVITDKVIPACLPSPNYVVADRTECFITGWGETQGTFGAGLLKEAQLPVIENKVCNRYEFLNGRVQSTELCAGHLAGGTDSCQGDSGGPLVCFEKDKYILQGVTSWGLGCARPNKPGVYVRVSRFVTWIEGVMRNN

B1: tissue Plasminogen Activator (protein)
chain: SYQVICRDEKTQMIYQQHQSWLRPVLRSNRVEYCWCNSGRAQCHSVPVKSCSEPRCFNGGTCQQALYFSDFVCQCPEGFAGKCCEIDTRATCYEDQGISYRGTWSTAESGAECTNWNSSALAQKPYSGRRPDAIRLGLGNHNYCRNPDRDSKPWCYVFKAGKYSSEFCSTPACSEGNSDCYFGNGSAYRGTHSLTESGASCLPWNSMILIGKVYTAQNPSAQALGLGKHNYCRNPDGDAKPWCHVLKNRRLTWEYCDVPSCSTCGLRQYSQPQFRIKGGLFADIASHPWQAAIFAKHRRSPGERFLCGGILISSCWILSAAHCFQERFPPHHLTVILGRTYRVVPGEEEQKFEVEKYIVHKEFDDDTYDNDIALLQLKSDSSRCAQESSVVRTVCLPPADLQLPDWTECELSGYGKHEALSPFYSERLKEAHVRLYPSSRCTSQHLLNRTVTDNMLCAGDTRSGGPQANLHDACQGDSGGPLVCLNDGRMTLVGIISWGLGCGQKDVPGVYTKVTNYLDWIRDNMRP
conversion of one-chain delta-plasminogen into two-chain delta-plasmin (reduced SDS-PAGE): delta-plasminogen indeed can be activated by all three plasminogen activators

From patent publication US20100047228
